Laboratory results: patent publication US12698507B2, “Methods and compositions for conferring and/or enhancing herbicide tolerance using protoporphyrinogen IX oxidase of various cyanobacteria or variant thereof” (FarmHannong Co., Ltd., priority 2019, dated 2026)
Changes are numbered by the printed parent chain. In names and notes the source's numbering stands.

B1: CyPPO19 A167I + L327T + F360V: variant of CyPPO19 PPO protein (SEQ ID NO: 1) (protein)
chain: MSEVDVAIVGGGLSGLSLAWRLQQSAPQYSVVLLEASDRLGGNITTQTAEGFVWELGPNSFAPTPALLQLIAEVGLQSELIRGDRHLPRYIYWRGQLYPLQPTRPLALATSNLLSPWGKVRAALGALGFVPPYLGSGDESVNSFFRRHLGQEVAERLVAPFVSGVYIGDPQQLSAAAAFRRIAQLEKLGGGLIAGALHLRRQQAPKPKPPTSVQMRPGELGSFKEGLAALPRAIAQQLKAPIHLQTPVQEITPDPKGGYLLRSGEQTWRARSVVLATPAYQTAELVAPFQPAIARVLATIPYPTVACVVLAYPAGLGRSVRPGFGVTIPRSQGIRTLGTIWSSCLFPQRTPAGWQVFTSVIGGATDPDLASLSEEAIVQQVQQDLNRLLDLPAAKARLLGMKVWRRAIPQYMVGYPEQWQQVTHALSQTPGLFLCSNYAEGVALGDRVEHGNRTAAAVAAYLSGGQP
modifications: Synthetic_PPO of Thermosynechococcus elongatus PKUAC-SCTE542 (comprising GenBank No. CP032152.1)
B2: CyPPO19 A167C + I408W + F360I: variant of CyPPO19 PPO protein (SEQ ID NO: 1) (protein)
chain: B1 chain with I167C, T327L, V360I, I408W
modifications: Synthetic_PPO of Thermosynechococcus elongatus PKUAC-SCTE542 (comprising GenBank No. CP032152.1)
B3: CyPPO19 A167I + I408W + F360V: variant of CyPPO19 PPO protein (SEQ ID NO: 1) (protein)
chain: B1 chain with T327L, I408W
modifications: Synthetic_PPO of Thermosynechococcus elongatus PKUAC-SCTE542 (comprising GenBank No. CP032152.1)
B4: CyPPO19 A167L + I408R + F360L: variant of CyPPO19 PPO protein (SEQ ID NO: 1) (protein)
chain: B1 chain with I167L, T327L, V360L, I408R
modifications: Synthetic_PPO of Thermosynechococcus elongatus PKUAC-SCTE542 (comprising GenBank No. CP032152.1)
B5: CyPPO19 V305M + L327T + F360I: variant of CyPPO19 PPO protein (SEQ ID NO: 1) (protein)
chain: B1 chain with I167A, V305M, V360I
modifications: Synthetic_PPO of Thermosynechococcus elongatus PKUAC-SCTE542 (comprising GenBank No. CP032152.1)
B6: CyPPO19 V305L + L327T + F360V: variant of CyPPO19 PPO protein (SEQ ID NO: 1) (protein)
chain: B1 chain with I167A, V305L
modifications: Synthetic_PPO of Thermosynechococcus elongatus PKUAC-SCTE542 (comprising GenBank No. CP032152.1)
B7: CyPPO19 V305M + L327T + F360T: variant of CyPPO19 PPO protein (SEQ ID NO: 1) (protein)
chain: B1 chain with I167A, V305M, V360T
modifications: Synthetic_PPO of Thermosynechococcus elongatus PKUAC-SCTE542 (comprising GenBank No. CP032152.1)
B8: CyPPO19 V305M + I408W + F360I: variant of CyPPO19 PPO protein (SEQ ID NO: 1) (protein)
chain: B1 chain with I167A, V305M, T327L, V360I, I408W
modifications: Synthetic_PPO of Thermosynechococcus elongatus PKUAC-SCTE542 (comprising GenBank No. CP032152.1)
B9: CyPPO19 V305M + I408W + F360V: variant of CyPPO19 PPO protein (SEQ ID NO: 1) (protein)
chain: B1 chain with I167A, V305M, T327L, I408W
modifications: Synthetic_PPO of Thermosynechococcus elongatus PKUAC-SCTE542 (comprising GenBank No. CP032152.1)
B10: CyPPO19 V305L + I408R + F360L: variant of CyPPO19 PPO protein (SEQ ID NO: 1) (protein)
chain: B1 chain with I167A, V305L, T327L, V360L, I408R
modifications: Synthetic_PPO of Thermosynechococcus elongatus PKUAC-SCTE542 (comprising GenBank No. CP032152.1)

Tested on: PPO-deficient BT3 E. coli (ΔPPO)
Experiment: PPO-inhibiting herbicide tolerance test of PPO variants in E. coli (growth on herbicide-containing LB agar)
Type: cell-based
Conditions: CyPPO19 variants in BT3 (ΔPPO) E. coli; LB agar with 0 to 2,000 μM herbicide, 37° C., dark, 16-20 hours
Method in brief: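 Tolerance was scored against wild-type enzyme: '−' for equal growth, one '+' per 10-fold gain, up to '+++++'. ΔPPO BT3 cells carrying variant plasmids, spotted as a 10-fold dilution series from OD600=0.5, grew 16-20 h at 37° C. in the dark on ampicillin LB agar containing 0 to 2,000 μM herbicide.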

Molecule | tolerance level relative to wild type, Carfentrazone | tolerance level relative to wild type, Flumioxazin | tolerance level relative to wild type, Fomesafen | tolerance level relative to wild type, Oxyfluorfen | tolerance level relative to wild type, Saflufenacil | tolerance level relative to wild type, Sulfentrazone | tolerance level relative to wild type, Tiafenacil
B1 | + (‘+’ per each 10-fold resistance) | +++++ (until ‘+++++’ as maximal resistance) | +++ (‘+’ per each 10-fold resistance) | +++ (‘+’ per each 10-fold resistance) | +++++ (until ‘+++++’ as maximal resistance) | +++++ (until ‘+++++’ as maximal resistance) | +++++ (until ‘+++++’ as maximal resistance)
B2 | + (‘+’ per each 10-fold resistance) | +++++ (until ‘+++++’ as maximal resistance) | +++ (‘+’ per each 10-fold resistance) | +++ (‘+’ per each 10-fold resistance) | +++++ (until ‘+++++’ as maximal resistance) | +++++ (until ‘+++++’ as maximal resistance) | +++++ (until ‘+++++’ as maximal resistance)
B3 | + (‘+’ per each 10-fold resistance) | ++++ (‘+’ per each 10-fold resistance) | + (‘+’ per each 10-fold resistance) | ++ (‘+’ per each 10-fold resistance) | ++++ (‘+’ per each 10-fold resistance) | +++ (‘+’ per each 10-fold resistance) | ++++ (‘+’ per each 10-fold resistance)
B4 | + (‘+’ per each 10-fold resistance) | ++++ (‘+’ per each 10-fold resistance) | +++ (‘+’ per each 10-fold resistance) | +++ (‘+’ per each 10-fold resistance) | ++++ (‘+’ per each 10-fold resistance) | ++++ (‘+’ per each 10-fold resistance) | ++++ (‘+’ per each 10-fold resistance)
B5 | + (‘+’ per each 10-fold resistance) | ++++ (‘+’ per each 10-fold resistance) | + (‘+’ per each 10-fold resistance) | ++ (‘+’ per each 10-fold resistance) | ++ (‘+’ per each 10-fold resistance) | ++ (‘+’ per each 10-fold resistance) | ++++ (‘+’ per each 10-fold resistance)
B6 | + (‘+’ per each 10-fold resistance) | +++++ (until ‘+++++’ as maximal resistance) | + (‘+’ per each 10-fold resistance) | +++ (‘+’ per each 10-fold resistance) | +++ (‘+’ per each 10-fold resistance) | ++ (‘+’ per each 10-fold resistance) | +++++ (until ‘+++++’ as maximal resistance)
B7 | + (‘+’ per each 10-fold resistance) | +++ (‘+’ per each 10-fold resistance) | ++ (‘+’ per each 10-fold resistance) | ++ (‘+’ per each 10-fold resistance) | +++ (‘+’ per each 10-fold resistance) | +++ (‘+’ per each 10-fold resistance) | +++ (‘+’ per each 10-fold resistance)
B8 | + (‘+’ per each 10-fold resistance) | +++++ (until ‘+++++’ as maximal resistance) | +++ (‘+’ per each 10-fold resistance) | +++ (‘+’ per each 10-fold resistance) | +++++ (until ‘+++++’ as maximal resistance) | +++ (‘+’ per each 10-fold resistance) | +++++ (until ‘+++++’ as maximal resistance)
B9 | + (‘+’ per each 10-fold resistance) | +++++ (until ‘+++++’ as maximal resistance) | +++ (‘+’ per each 10-fold resistance) | +++ (‘+’ per each 10-fold resistance) | +++++ (until ‘+++++’ as maximal resistance) | ++++ (‘+’ per each 10-fold resistance) | +++++ (until ‘+++++’ as maximal resistance)
B10 | + (‘+’ per each 10-fold resistance) | ++++ (‘+’ per each 10-fold resistance) | + (‘+’ per each 10-fold resistance) | ++ (‘+’ per each 10-fold resistance) | +++++ (until ‘+++++’ as maximal resistance) | ++ (‘+’ per each 10-fold resistance) | +++++ (until ‘+++++’ as maximal resistance)
